{"source": "patent US20160002338A1", "about": "(Hoffmann-La Roche, published 2016)", "binders": {"B1": {"name": "anti-HER3/HER4 antibody M-05-74 (antibody, V domains shown)", "VH": "QVQLQQSGAELAKPGASVKMSCKTSGYTLTDYWIHWVKQRPGQGLEWIGYINPYTGYTESNQKFKDKATLTADKSSNTAYIQLSSLTSEDSAVYYCARPYYYGDYWGQGTTLTVSS", "VL": "QIVLTQSPAIMSASPGERVTITCSASSSVSYMHWFQQKPGTSPKLLIYSTSNLASGVPARFSGSGSGTSYSLTISRMEAEDAATYYCQQRSSYPFTFGSGTKLEIK", "notes": "murine monoclonal antibody from hybridoma (supernatant or purified); also called M-074; M-5-74"}}, "key": {"[1]": {"biological_target": "T1, HER3 ECD-HRG complex (human, UniProt P21860 20-643)", "T1 construct": "also called Heregulin/Her-3 ECD", "T1 sequence (P21860 20-643 limits assumed, one chain of several)": "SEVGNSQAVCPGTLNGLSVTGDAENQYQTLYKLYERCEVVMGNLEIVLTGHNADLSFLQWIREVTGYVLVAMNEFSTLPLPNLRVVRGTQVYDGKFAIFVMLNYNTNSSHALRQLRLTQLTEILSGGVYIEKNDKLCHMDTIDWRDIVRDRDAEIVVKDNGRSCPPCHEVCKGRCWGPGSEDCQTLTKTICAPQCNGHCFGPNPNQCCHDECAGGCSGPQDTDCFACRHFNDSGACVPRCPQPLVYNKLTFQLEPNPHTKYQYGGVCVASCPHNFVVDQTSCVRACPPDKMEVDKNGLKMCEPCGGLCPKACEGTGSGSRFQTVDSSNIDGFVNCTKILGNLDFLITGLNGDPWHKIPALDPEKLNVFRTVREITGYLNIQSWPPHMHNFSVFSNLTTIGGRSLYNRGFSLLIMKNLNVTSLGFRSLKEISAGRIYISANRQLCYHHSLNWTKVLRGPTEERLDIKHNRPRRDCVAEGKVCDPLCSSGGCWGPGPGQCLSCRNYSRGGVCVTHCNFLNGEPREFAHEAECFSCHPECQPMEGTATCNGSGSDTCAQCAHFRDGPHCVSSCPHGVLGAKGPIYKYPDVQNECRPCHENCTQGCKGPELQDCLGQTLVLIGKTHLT", "assay": "SPR Biacore 3000, antibody captured, 25 C", "description": "(§1) A CM5 series sensor was mounted into the system and was normalized in HBS-ET buffer (10 mM HEPES pH 7.4, 150 mM NaCl, 3 mM EDTA, 0.005% w/v Tween 20) according to the manufacturer's instructions. The sample buffer was the system buffer supplemented with 1 mg/ml CMD (Carboxymethyldextran). The system operated at 25° C. 10000 RU RAM-Fcγ(relative units of Fcγ-fragment Rabbit Anti-Mouse IgG/Jackson Laboratories) were immobilized according to the manufacturer's instructions using EDC/NHS chemistry on all flow cells. The sensor was deactivated using 1M ethanolamine. Analytes in solution were injected at 100 μl/min at different concentration steps of 0 nM, 1.1 nM, 3.7 nM, 11.1 nM, 33.1 nM and 90 nM for 2 min. The dissociation was monitored for 5 min. Acidic regeneration of the sensor surface was achieved using three consecutive injections of 10 mM Glycine pH 1.7 at 30 μl/min for 60 sec. Kinetic data were evaluated according to a Langmuir fit."}, "[2]": {"biological_target": "T2, TtSlyD-FKBP-Her3", "T2 construct": "15 kDa; N-terminal Met may be present or not; also called Thermus thermophilus SlyD FKBP-Her3; thermo SlyD-Her3", "T2 chain": "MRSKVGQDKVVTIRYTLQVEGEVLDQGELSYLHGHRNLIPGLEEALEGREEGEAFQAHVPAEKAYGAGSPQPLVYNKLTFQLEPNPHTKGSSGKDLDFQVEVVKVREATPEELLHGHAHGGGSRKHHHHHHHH", "assay": "SPR Biacore 3000, antibody captured, 25 C", "description": "as §1"}, "[3]": {"biological_target": "T3, human recombinant HER3 ECD (human, UniProt P21860 20-643)", "T3 construct": "68 kDa; also called human-Her3-ECD; full length Her3 ECD", "T3 sequence (P21860 20-643)": "as the sequence (P21860 20-643 limits assumed, one chain of several) above", "assay": "SPR Biacore 3000, antibody captured, 25 C", "description": "as §1"}, "[4]": {"biological_target": "T4, HER4 ECD binding epitope peptide VYNPTTFQLE (human)", "T4 construct": "the spotted peptides were longer", "T4 peptide": "VYNPTTFQLE", "assay": "CelluSpots peptide array, 1 µg/mL antibody"}, "[5]": {"biological_target": "T5, HER3 ECD binding epitope peptide VYNKLTFQLEP (human)", "T5 construct": "the spotted peptides were longer", "T5 peptide": "VYNKLTFQLEP", "assay": "CelluSpots peptide array, 1 µg/mL antibody"}}}
{"binder": "B1", "values": [{"measurement": "Binding Late BL", "setting": "[1]", "result": 199, "unit": "RU"}, {"measurement": "Molar Ratio MR", "setting": "[1]", "result": 0.8}, {"measurement": "Binding Late BL", "setting": "[2]", "result": 68.1, "unit": "RU"}, {"measurement": "Molar Ratio MR", "setting": "[2]", "result": 1.5}, {"measurement": "Binding Late BL", "setting": "[3]", "result": 36, "unit": "RU"}, {"measurement": "Molar Ratio MR", "setting": "[3]", "result": 0.2}, {"measurement": "binding result", "setting": "[4]", "result": "binds"}, {"measurement": "binding result", "setting": "[5]", "result": "binds"}]}
